For assay [1], the target named is EpCAM ECD (Homo sapiens) (UniProt P16422). The note with it: cited from earlier work.
Assay [2] addresses mCherry-EpFL (N-terminal fusion of mCherry to full-length EpCAM) (UniProt P16422). As to the kind of experiment: FRET or BRET; FLIM-FRET, donor sfGFP and acceptor mCherry both N-terminal on EpFL, co-transfected in the same cell (cis; GFPEX/CherryEX), equimolar plasmids; HEK 293 T and HCT8 #L13 cells, fixed; whole cell membrane region.
The target in assay [3] is EpCAM ECD (Homo sapiens) (UniProt P16422). Conditions: cited from earlier work. This is another data set of the same source.

Where two headings read alike, the source gives them in different places.

For “EpCAM trans-tetramer (dimer-dimer) ECD (from UniProt P16422)”, the Kd with EpCAM ECD (Homo sapiens) [1] is 10 µM.

“sfGFP-EpFL (N-terminal fusion of sfGFP to full-length EpCAM) (from UniProt P16422 24-314) (receptor)” registered an average donor fluorescence lifetime in assay [2] of 1.6 ns. Take “EpCAM cis-dimer ECD (from UniProt P16422)”: the Kd with EpCAM ECD (Homo sapiens) [3] was 0.01 µM.

The record behind these values is paper PMC6125409.
